# System: luciferase position 361 and sfGFP amber suppression
# Assay: Amber suppression assays using several different reporters (luciferase and sfGFP)
# Format: cell-based, E. coli
# Settings: BocK; IPYE variant vs parent enzyme; FIGS. 9B-9D
# Protocol: S1030 cells (25 μL) were electroporated with the appropriate plasmid(s) and recovered in SOC media (New England Biolabs) for 1 h while shaking at 37° C. Transformed cells were plated and grown overnight at 37° C. on LB agar containing the antibiotics required for plasmid maintenance. Single colonies were used to inoculate 2-3 mL of DRM containing antibiotics and were grown overnight at 37° C. while shaking at 230 rpm. The saturated overnight cultures were diluted 100-fold in a 96-well deep well plate using 1 mL of DRM containing the required antibiotic and supplemented with 1 mM ncAA where denoted. […] The plate continued to incubate with shaking at 37° C. for an additional 2-3 h until maximum luminescence signal was observed. Each luminescence measurement was taken on 150 μL of each culture, which had been transferred to a 96-well black wall, clear bottom plate (Costar). The A600 and luminescence measurements from each well were taken using an Infinite M1000 Pro microplate reader (Tecan). […] The raw luminescence value from each well was divided by the background-subtracted A600 value of the corresponding well to provide the luminescence value normalized to cell density. […]
row,Molecule,activity in amber suppression assays using several different reporters
1,"MbPylRS(IPYE): M. barkeri PylRS with transplanted PACE mutations V31I, T56P, H62Y, A100E (protein, UniProt Q6WRH6 1-419, looked up, variant V31I T56P H62Y A100E) Pyrrolysine--tRNA ligase: MDKKPLDVLISATGLWMSRTGTLHKIKHHEISRSKIYIEMACGDHLVVNNSRSCRPARAFRYHKYRKTCKRCRVSDEDINNFLTRSTESKNSVKVRVVSEPKVKKAMPKSVSRAPKPLENSVSAKASTNTSRSVPSPAKSTPNSSVPASAPAPSLTRSQLDRVEALLSPEDKISLNMAKPFRELEPELVTRRKNDFQRLYTNDREDYLGKLERDITKFFVDRGFLEIKSPILIPAEYVERMGINNDTELSKQIFRVDKNLCLRPMLAPTLYNYLRKLDRILPGPIKIFEVGPCYRKESDGKEHLEEFTMVNFCQMGSGCTRENLEALIKEFLDYLEIDFEIVGDSCMVYGDTLDIMHGDLELSSAVVGPVSLDREWGIDKPWIGAGFGLERLLKVMHGFKNIKRASRSESYYNGISTNL",dramatically enhanced
2,"MmPylRS(IPYE): M. mazei PylRS with transplanted PACE mutations V31I, T56P, H62Y, A100E (protein, UniProt Q8PWY1 1-454, looked up, variant V31I T56P H62Y A100E) Pyrrolysine--tRNA ligase: MDKKPLNTLISATGLWMSRTGTIHKIKHHEISRSKIYIEMACGDHLVVNNSRSSRPARALRYHKYRKTCKRCRVSDEDLNKFLTKANEDQTSVKVKVVSEPTRTKKAMPKSVARAPKPLENTEAAQAQPSGSKFSPAIPVSTQESVSVPASVSTSISSISTGATASALVKGNTNPITSMSAPVQASAPALTKSQTDRLEVLLNPKDEISLNSGKPFRELESELLSRRKKDLQQIYAEERENYLGKLEREITRFFVDRGFLEIKSPILIPLEYIERMGIDNDTELSKQIFRVDKNFCLRPMLAPNLYNYLRKLDRALPDPIKIFEIGPCYRKESDGKEHLEEFTMLNFCQMGSGCTRENLESIITDFLNHLGIDFKIVGDSCMVYGDTLDVMHGDLELSSAVVGPIPLDREWGIDKPWIGAGFGLERLLKVKHDFKNIKRAARSESYYNGISTNL","improved, albeit more modestly"
